According to patent publication US20250215397A1, “TWO-DIMENSIONAL CULTURE METHOD HAVING CLEAR CHEMICAL COMPOSITION FOR CULTURING THREE-DIMENSIONAL INTESTINAL ORGANOID-DERIVED INTESTINAL STEM CELL AGGREGATE” (KOREA RESEARCH INSTITUTE OF BIOSCIENCE AND BIOTECHNOLOGY, priority 2022, published 2025):

Legend:
Assay type in all cases: cell-based, human
[1] = test system: two-dimensional intestinal stem cell population; assay: Subculture of two-dimensional intestinal stem cells, engraftment / cell number; conditions: factor removed from culture medium, subculture; FIG. 12
Description: (§1) The three-dimensional intestinal organoids were isolated from a Matrigel dome and the remaining three-dimensional intestinal organoids were removed as much as possible by pipetting. The separated organoids were placed in 1 ml of 0.25% trypsin-EDTA (TE, Invitrogen) and incubated at 37° C. a water bath for about 5 minutes. Then, pipetting was performed less than five times so that the organoids were allowed to be isolated into single cells and small clumps, and a basal medium was added so that the total volume thereof was 10 ml. The cells fed into a centrifuge were placed on culture dishes coated with feeder cells or 1% of Matrigel (Corning). […]
(§2) The two-dimensional intestinal stem cell population was plated on a culture dish coated with 1% of Matrigel and then cultured for 2 to 7 days. […] After centrifugation, a medium was added to isolate the cells into single cells, and then the number of cells was measured using CountessIII cell counter (Thermo Scientific. Inc.).

[2] = test system: two-dimensional intestinal stem cell population; assay: Differentiation into 2.5-dimensional intestinal epithelial cells by air-liquid interface culture, medium factor screening; conditions: minimal medium composition; FIG. 24
Description: The intestinal stem cells grown to a density of 70 to 80% were washed 1-2 times with PBS, and then treated with TE in an incubator at 37° C. for 5 to 7 minutes. The intestinal stem cells isolated into single cells were collected and then diluted using the hIO medium. The cells were gathered by centrifugation, supernatant was removed, the intestinal stem cell culture medium was added thereto and sufficiently mixed, and then the number of cells was measured using Countess III cell counter (Thermo Scientific. Inc.). 2.5-3.5×10^5 cells were placed in an insert of 12-transwell plate (Corning) coated with 1% of Matrigel, and cultured in an incubator. After the cell density reached 100%, the culture medium of an upper layer was completely removed, and the culture medium of a lower layer was replaced with a differentiation medium (2 mM of L-glutamine, 1% of Penicillin-Streptomycin, and 15 mM of a HEPES buffer in Advanced DMEM F12) comprising 200 ng/ml of R-spondin 1 (R&D Systems), 100 ng/ml of EGF (R&D Systems), 2.5 µM of Prostaglandin E2 (Sigma-aldrich), 10 μM of SB202190 (Sigma-aldrich), and 10 mM of nicotinamide (Sigma-aldrich). Thereafter, once every 2 days, a surface of the upper layer was washed with the PBS or hIO medium, and the lower layer was replaced with a new differentiation medium and cultured for 8 to 12 days.

[3] = test system: two-dimensional intestinal stem cell population; assay: Two-dimensional culture of intestinal stem cell population with removal of medium factors or inhibitor treatment; conditions: presence or absence of each factor; FIGS. 7-10
Description: as §1
To measure viability of a two-dimensional intestinal stem cell population cultured in a culture dish coated with 1% of Matrigel, a kit (LIVE/DEAD Viability/Cytotoxicity Kit, Invitrogen) capable of distinguishing and staining surviving cells and dead cells was used. […] The stained cells were observed through a fluorescence microscope (Olympus).
as §2, with “Inc.). […]” for “Inc.).”

B1: Noggin: BMP inhibitor (protein, UniProt Q13253 28-232, looked up)
Noggin: QHYLHIRPAPSDNLPLVDLIEHPDPIFDPKEKDLNETLLRSLLGGHYDPGFMATSPPEDRPGGGGGAAGGAEDLAELDQLLRQRPSGAMPSEIKGLEFSEGLAQGKKQRLSKKLRRKLQMWLWSQTFCPVLYAWNDLGSRFWPRYVKVGSCFSKRSCSVPEGMVCKPSKSVHLTVLRWRCQRRGGQRCGWIPIQYPIISECKCSC
[1]
  need for long-term subculturing: required to more efficiently perform long-term culturing

B2: R-spondin 1: WNT/R-spondin activator (protein, UniProt Q2MKA7 21-263, looked up)
R-spondin-1: SRGIKGKRQRRISAEGSQACAKGCELCSEVNGCLKCSPKLFILLERNDIRQVGVCLPSCPPGYFDARNPDMNKCIKCKIEHCEACFSHNFCTKCKEGLYLHKGRCYPACPEGSSAANGTMECSSPAQCEMSEWSPWGPCSKKQQLCGFRRGSEERTRRVLHAPVGDHAACSDTKETRRCTVRRVPCPEGQKRRKGGQGRRENANRNLARKESKEAGAGSRRRKGQQQQQQQGTVGPLTSAGPA
[2]
  effect on differentiation into intestinal epithelial cells: excellent effect on differentiation into intestinal epithelial cells
[3]
  role of essential culture medium factor (stemness, proliferation, death): modulate stemness and proliferation of two-dimensional intestinal stem cells

B3: WNT3A: human recombinant WNT3A, Wnt signaling pathway activator (protein, UniProt P56704 19-352, looked up)
Protein Wnt-3a: SYPIWWSLAVGPQYSSLGSQPILCASIPGLVPKQLRFCRNYVEIMPSVAEGIKIGIQECQHQFRGRRWNCTTVHDSLAIFGPVLDKATRESAFVHAIASAGVAFAVTRSCAEGTAAICGCSSRHQGSPGKGWKWGGCSEDIEFGGMVSREFADARENRPDARSAMNRHNNEAGRQAIASHMHLKCKCHGLSGSCEVKTCWWSQPDFRAIGDFLKDKYDSASEMVVEKHRESRGWVETLRPRYTYFKVPTERDLVYYEASPNFCEPNPETGSFGTRDRTCNVSSHGIDGCDLLCCGRGHNARAERRREKCRCVFHWCCYVSCQECTRVYDVHTCK
[1]
  need for long-term subculturing: required to more efficiently perform long-term culturing
